Legend:
[1] = molecular target: T1, ZNF410 ZF1-5 (GST removed) (Homo sapiens, UniProt Q86VK4 SEQ:217-366); test: structure; crystal structure 2.75 A, PDB 6WMI; settings: tags: none (GST cleaved with PreScission protease); label: FAM 5' (top strand) in FP
T1 sequence: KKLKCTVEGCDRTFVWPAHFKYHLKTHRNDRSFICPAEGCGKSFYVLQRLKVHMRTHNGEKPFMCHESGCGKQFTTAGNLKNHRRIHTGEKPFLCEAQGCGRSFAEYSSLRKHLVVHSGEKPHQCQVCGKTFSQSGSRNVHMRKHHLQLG

[2] = system: motifs from the CHD4 promoter and enhancer sites; test: EMSA with COS-7 nuclear extracts and radiolabeled probes; format: binding, human; settings: COS nuclear extracts, FLAG-tagged constructs, radiolabeled CHD4 motif probes
Description: Nuclear extracts were prepared from COS-7 cells transiently transfected with ZNF410 full-length and ZNF410 ZF1-5 plasmids. FuGENE® 6 (Promega) was used to transfect 5 μg of vector into 100 mm plates of COS-7 cells. A pcDNA3 empty vector was used as control. Cells were harvested 48 hours after transfection and nuclear extracts prepared (Andrews, et al. (1991) Nucleic Acids Res., 19:2499).
EMSAs were performed (Crossley, et al. (1996) Mol. Cell Biol., 16:1695-1705). The sense oligonucleotide was labelled with [γ-^32P]-adenosine triphosphate (Perkin Elmer) and boiled at 100° C. for 1 minute before addition of the antisense oligonucleotide and annealing of probe via slow cooling from 100° C. to room temperature. Probes were purified using Quick Spin Columns for radio-labelled DNA Purification (Roche). Nuclear extracts were harvested from COS-7 cells and samples and loaded on a 6% native polyacrylamide gel in TBE buffer (45 mM Tris, 45 mM boric acid, 1 mM EDTA). A ‘COS empty’ control lane was included to show binding of any background endogenous protein to the probe. […] Gels were run at 250 V for 1 hour, 45 minutes at 4° C. then dried under vacuum. […]
ZNF410 contains five tandem C2H2-type zinc fingers (ZFs) potentially involved in DNA binding (FIG. 5A). […] Direct DNA binding by full length (FL) ZNF410 to sequences found at the CHD4 gene was assessed by electrophoretic mobility shift assays (EMSAs). […]

endogenous ZNF410 = molecular target: T2, endogenous ZNF410 (Homo sapiens, UniProt Q86VK4); test: RT-qPCR in HUDEP-2 cells overexpressing HA-tagged ZNF410 constructs; format: cell-based
T2 construct: endogenous in cells; host or cells: HUDEP-2 (HUDEP-2-Cas9) cells, differentiated
T2 sequence (Q86VK4 1-478): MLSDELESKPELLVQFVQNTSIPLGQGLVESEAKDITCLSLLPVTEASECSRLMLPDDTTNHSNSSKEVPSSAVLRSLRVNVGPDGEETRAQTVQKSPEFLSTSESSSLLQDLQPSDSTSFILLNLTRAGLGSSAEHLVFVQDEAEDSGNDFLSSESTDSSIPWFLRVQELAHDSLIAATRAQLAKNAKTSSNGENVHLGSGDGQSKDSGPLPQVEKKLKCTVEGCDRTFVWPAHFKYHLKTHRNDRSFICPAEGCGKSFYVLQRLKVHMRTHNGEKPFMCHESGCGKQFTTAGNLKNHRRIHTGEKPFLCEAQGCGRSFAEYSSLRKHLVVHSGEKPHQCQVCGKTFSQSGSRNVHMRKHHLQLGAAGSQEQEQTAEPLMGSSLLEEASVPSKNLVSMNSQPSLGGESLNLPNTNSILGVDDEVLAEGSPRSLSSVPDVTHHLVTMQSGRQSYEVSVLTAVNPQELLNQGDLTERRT
Description: HUDEP-2 cells were cultured and differentiated as described (Kurita, et al. (2013) PLoS One 8:e59890). Briefly, StemSpan™ Serum-Free Expansion Medium (SFEM) supplemented with 50 ng/ml human stem cell factor (SCF), 10 μM dexamethasone, 1 μg/ml doxycycline, 3 IU/ml erythropoietin and 1% penicillin/streptomycin was utilized for routine cell maintenance. Cell density was kept at 0.1-1×10^6/ml. HUDEP-2 cells were differentiated for 6-7 days in IMDM supplemented with 50 ng/ml human SCF, 3 IU/ml erythropoietin, 2.5% fetal bovine serum, 250 μg/ml holo-transferrin, 10 ng/ml heparin, 10 μg/ml insulin, 1 μg/ml doxycycline and 1% penicillin/streptomycin.
SgRNAs were cloned into a lentiviral U6-sgRNA-EFS-GFP/mCherry expression vector (LRG, Addgene: #65656) by BsmBI digestion. The ZNF410 cDNA (clone ID: OHu10535), CHD4 cDNA (clone ID: OHu28780) were purchased from GenScript and were sub-cloned into a lentiviral vector pSDM101-IRES-GFP. ZNF410 variants were sub-cloned into pSDM101-IRES-GFP vector. The N-terminal HA tag was introduced by PCR. For EMSA, the ZNF410 full length or different ZF versions were sub-cloned into mammalian expression vector pcDNA3.
Lentivirus was produced as described (Grevet, et al. (2018) Science 361:285-290). Briefly, 10-20 μg of expression vectors, 5-10 μg of pVSVG (pMD2.G) and 7.5-15 μg of psPAX2 package plasmids, and 80 μl of 1 mg/ml polyethylenimine (PEI) were mixed, incubated for 15-20 minutes, and added to HEK293T cells grown in 10 cm plates to above 90% confluence. Media were replaced 6-8 hours post transfection, virus was collected 24 hours and 48 hours post-transfection and pooled. For infection, virus-containing supernatant was mixed with the indicated cell lines with 8 μg/ml polybrene and 10 mM HEPES, and then spun at 2250 rpm for 1.5 hours at room temperature. Infected HUDEP-2 cells were selected for mCherry+ or GFP+ cell sorting at 48 hours post-infection.
Total RNA was purified using the RNeasy® Plus Mini Kit (Qiagen), including an on-column DNAse treatment using RNase-free DNase set (Qiagen) to remove genomic DNA. Reverse transcription was accomplished using iScript™ Supermix (Bio-Rad). qPCR reactions were prepared with Power SYBR® Green (ThermoFisher Scientific). Quantification was performed using the ΔΔCT method.
Overexpression of ZF1-5 but not ZF2-4 should compete with endogenous ZNF410 for chromatin binding, thus acting in a dominant-negative manner. To test this hypothesis, a construct containing HA-tagged ZF1-5 or ZF2-4 driven by the EF1α promoter was introduced via lentiviral infection into HUDEP-2 cells. As control, the expression of full-length HA-tagged ZNF410 was forced. […] Moreover, full-length HA-ZNF410 when overexpressed to similar levels to HA-ZF1-5 also produced similar binding patterns (FIG. 4A). […] Thus, the ZF region is sufficient for chromatin occupancy but insufficient for CHD4 gene activation. […] Finally, the impact of ZNF410 expression on γ-globin levels was also measured.

[3] = molecular target: T3, ZNF410 ZF1-5 (GST fusion) (Homo sapiens, UniProt Q86VK4 SEQ:217-366); test: FP; no measurable binding up to 2.5 uM; shares 7/17 bp with consensus; settings: tags: GST N-terminal (pGEX-6P-1, pXC2180); label: FAM 5' (top strand)
T3 sequence: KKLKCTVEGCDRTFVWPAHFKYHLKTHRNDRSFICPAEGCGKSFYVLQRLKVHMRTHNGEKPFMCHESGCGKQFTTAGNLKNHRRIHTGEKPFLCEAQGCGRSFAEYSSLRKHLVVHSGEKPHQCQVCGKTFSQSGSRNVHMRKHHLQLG
Description: To further gain insight into the molecular basis of how the ZNF410 tandem ZF domain recognizes its targeting DNA sequence, crystallization of the ZNF410-DNA complex was performed. The binding affinity of the ZNF410 ZF domain (ZF1-5) with the consensus motif was quantified by fluorescence polarization using purified GST fusion protein (Patel, et al. (2016) Methods Enzymol., 573:387-401). […] Next, the crystal structure of the ZF domain in complex with the same 17-bp oligo (5′-3′: […] (SEQ ID NO: 19); 3′-5′: […] (SEQ ID NO: 20)) containing the consensus motif was determined. The structure of the protein-DNA complex was solved by the single-wavelength anomalous diffraction (SAD) method (Hendrickson, et al. (1990) EMBO J., 9:1665-1672) at 2.75 Å resolution. As in conventional C2H2 ZF proteins (Wolfe, et al. (2000) Annu. Rev. Biophys. Biomol. Struct., 29:183-212), each of five fingers of ZNF410 comprises two strands and a helix, with two histidine residues in the helix together with one cysteine in each strand coordinating a zinc ion, forming a characteristic tetrahedral C2-Zn—H2 structural unit that confers rigidity to the fingers. When bound to DNA, ZF1-5 occupies the DNA major groove, with their α-helices toward DNA and the strands and the C2-Zn—H2 units facing outside (FIGS. 6B and C). […]

B1: ZNF410 consensus oligo 17 bp (dsDNA)
DNA 1: CACATCCCATAATAATG
DNA 2: CATTATTATGGGATGTG
binding result [1]: binds

B2: ZNF410 FL: full-length tagged human ZNF410 (478 amino acids) overexpressed as control (protein)
chain: MLSDELESKPELLVQFVQNTSIPLGQGLVESEAKDITCLSLLPVTEASECSRLMLPDDTTNHSNSSKEVPSSAVLRSLRVNVGPDGEETRAQTVQKSPEFLSTSESSSLLQDLQPSDSTSFILLNLTRAGLGSSAEHLVFVQDEAEDSGNDFLSSESTDSSIPWFLRVQELAHDSLIAATRAQLAKNAKTSSNGENVHLGSGDGQSKDSGPLPQVEKKLKCTVEGCDRTFVWPAHFKYHLKTHRNDRSFICPAEGCGKSFYVLQRLKVHMRTHNGEKPFMCHESGCGKQFTTAGNLKNHRRIHTGEKPFLCEAQGCGRSFAEYSSLRKHLVVHSGEKPHQCQVCGKTFSQSGSRNVHMRKHHLQLGAAGSQEQEQTAEPLMGSSLLEEASVPSKNLVSMNSQPSLGGESLNLPNTNSILGVDDEVLAEGSPRSLSSVPDVTHHLVTMQSGRQSYEVSVLTAVNPQELLNQGDLTERRT
modifications: left off: small tags and cut ends
notes: full-length tagged human ZNF410 (478 amino acids) overexpressed as control
DNA binding in EMSA [2]: comparable binding to each of the four DNA probes | effect on CHD4 expression (endogenous ZNF410; overexpression in HUDEP-2 cells): increased | effect on γ-globin mRNA levels (endogenous ZNF410; overexpression in differentiated HUDEP-2 cells): slight decrease

B3: negative control oligo (dsDNA)
DNA 1: TCCACTGCCAGGACCTTT
DNA 2: AAAAGGTCCTGGCAGTGG
binding result [3]: no binding

Reference: patent US20230272390A1, “COMPOSITIONS AND METHODS FOR HEMOGLOBIN PRODUCTION” (THE CHILDREN'S HOSPITAL OF PHILADELPHIA, priority 2020, published 2023)
